This is an account of results in the supplement of paper PMC12764529.

± gives the half width of the 95% confidence interval.

Data set [1] is described as follows: folding stability dG unfold from trypsin proteolysis; higher = more stable. The gist of the method: (§1)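 How resistant each design was to proteolysis was captured as K50, inferred by Bayesian fitting of sequencing counts. Unfolding free energy was then derived relative to a sequence-predicted unfolded-state K50 and a shared folded-state K50, per protease or combined. Digestion used trypsin and chymotrypsin at 11 threefold-diluted concentrations plus a no-protease condition, on mini-proteins under 80 residues without cysteine in a PA-tagged cDNA display construct. Designs were kept only when AlphaFold2 dimer inter-PAE was above 15.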

Data set [2] in a line: folding stability dG unfold (combined trypsin and chymotrypsin); higher = more stable. The gist of the method:
as §1

A short description of data set [3]: folding stability dG unfold from chymotrypsin proteolysis; higher = more stable. The gist of the method:
as §1

As for “SMEIRIKEVNEDGYLVIEIRVLSEDGKELTPEEVEELAEEIAAELKEKFPDVKVTVERLEDGTVRIVVEPSA [r9_485_TrROS_Hall]”, the “folding stability dG unfold” value is 3.19 ± 0.15 kcal/mol in data set [1], 2.89 ± 0.22 kcal/mol in data set [2] and 2.65 ± 0.15 kcal/mol in data set [3].
“SMETPPEELVERVREYLASQGYTVTSVEVTPLPDGSVRVEVTATPPDASTTLTITVTVPPDGTVVVEVTAQS [r1_460_JUSTAS]”: the “folding stability dG unfold” value came out at 3.76 ± 0.2 kcal/mol in data set [1], 5.3 ± 0.15 kcal/mol in data set [2] and 5.26 ± 0.12 kcal/mol in data set [3].
For “SMETVELRVRVRVFNPETGELVEEIEVTVTLPKGMTLEEALRRAREALREALERLLRPPEPVLDEDGRLVSA [r9_454_TrROS_Hall]”, in that order: 3.66 ± 0.12 kcal/mol, 3.99 ± 0.14 kcal/mol and 4.26 ± 0.19 kcal/mol.
For “SMEVEFDPENRTIVATVPEGVDPLAVAATLLAVVRELFDSGPVRLIVTNGDEVLEYLLGEDVLEVRPAGESA [r9_224_TrMRF]”, in that order: 3.26 ± 0.11 kcal/mol, 4.01 ± 0.1 kcal/mol and 4.21 ± 0.11 kcal/mol.
Take “SMEVVEEFTLPNGTRITLTKNEDGTVTVTLETTVKNPETGKTTTKTVTITVKLEPGEEYSLEELLATLLSSA [r9_614_TrROS_Hall]”: the “folding stability dG unfold” value in data set [1] stood at 3.5 ± 0.12 kcal/mol; in data set [2], 3.7 ± 0.078 kcal/mol; in data set [3], 3.77 ± 0.039 kcal/mol.
For “SMEVYTEETEEKSPTPLRRRTTTTTVVTRDGSRTVVTVETRVELEPVPPVPPRPLPPIYTPENREVNILLSA [r9_965_JUSTAS]”, in that order: 1.54 ± 0.17 kcal/mol, 1.38 ± 0.73 kcal/mol and 0.51 ± 0.81 kcal/mol.
Consider “SMFKNVKSVHIYQDPIKGNNLIIVAETEEGTVELELPEDKAIEFLNTLKEKGFDIKVTHVEYLPVSPEYGSA [r9_607_TrMRF]”, for which the “folding stability dG unfold” value in data set [1] worked out at 2.19 ± 0.064 kcal/mol; in data set [2], 2.36 ± 0.081 kcal/mol; in data set [3] it was 2.453 ± 0.011 kcal/mol.
As to “SMIKPDEVVEKIEFTFPDGVAGDTRTFPVPEGSVIVYIDLGEPVYVMEILEDGSVKIEPVPEEVAKELAKSA [r9_1144_TrMRF]”, the “folding stability dG unfold” value in data set [1] was 0.37 ± 0.048 kcal/mol; in data set [2], 0.3 ± 0.12 kcal/mol; in data set [3], 0.115 ± 0.1 kcal/mol.
Turning to “SMIPVEELVRLAAERLGLPEEELENIEEVEPFEVEPLPDNAVRVKLRIRLKNPESDEVTELDIEIVDPGGSA [r9_230_TrMRF]”, the figures for the “folding stability dG unfold” value in data set [1], in data set [2] and in data set [3] were 1.2 ± 0.021 kcal/mol, 1.92 ± 0.072 kcal/mol and 2.21 ± 0.033 kcal/mol, respectively.
Take “SMIQVDIKPDAINVTVTKEGKSVTVPMDLEELEELLKKGVEKVEIKSPDPEVLEKIKELVEKAGVPIELKSA [r9_810_JUSTAS]”: the entries for the “folding stability dG unfold” value in data set [1], in data set [2] and in data set [3] were 1.09 ± 0.1 kcal/mol, 1.02 ± 0.25 kcal/mol and 0.686 ± 0.06 kcal/mol, respectively.
For “SMISLEKETSLPPEEARRAVERFLAELPEVERLLSVEVREDPDSYTVSLTLEGGAVSPEVLEAIERALAASA [r9_195_JUSTAS]”, in that order: 2.54 ± 0.053 kcal/mol, 2.63 ± 0.062 kcal/mol and 2.71 ± 0.039 kcal/mol.
On to “SMKIEKKDGKYVLTIKIKADSVEEVLNALKKLGIKFPPGVKEIKVVKVEEVNGEVYITIVVDTEEALKALSA [r9_820_TrROS_Hall]”, for which the “folding stability dG unfold” value in data set [1] worked out at 2.93 ± 0.13 kcal/mol; in data set [2], 2.6 ± 0.28 kcal/mol; in data set [3], 2.34 ± 0.09 kcal/mol.
For “SMKIEPHPDGTVTFTIPAEFPDIPAEEIAALIEKALPPGVRLGEEITVERDPETGEVRVTAKVEVPPDAVSA [r9_1011_TrMRF]”, in that order: 2.49 ± 0.12 kcal/mol, 2.74 ± 0.12 kcal/mol and 2.81 ± 0.073 kcal/mol.
“SMKILIVTKEKAEELAEAIKKKFPNIEIEVFDTPEEAEEAAKKGDIVIVIGSEEEAKELAKKLKVKVIKISA [r9_380_TrROS_Hall]”: the “folding stability dG unfold” value in data set [1] was 2.19 ± 0.09 kcal/mol; in data set [2] it was 2.86 ± 0.45 kcal/mol; in data set [3] it was 3.39 ± 0.12 kcal/mol.
For the sequence “SMKITPLPGPEEVAEFPETGETITITRDPSTGLVTVTYNGPGTPVTATTDPAVGTVTVNTPDGKITIPLTSA [r9_541_JUSTAS]”, the “folding stability dG unfold” value in data set [1] is 0.669 ± 0.02 kcal/mol; in data set [2] it was 0.346 ± 0.072 kcal/mol; in data set [3] it was -0.512 ± 0.22 kcal/mol.
Regarding “SMKIYILSSGDKEKVLAEVKEKYPDLEIELFEDIEEAKKAAEKGNLLISNGDEELAKEFEEKYNVKVIIKSA [r9_380_JUSTAS]”, the “folding stability dG unfold” value in data set [1] came to 1.41 ± 0.039 kcal/mol; in data set [2] it was 1.6 ± 0.14 kcal/mol; in data set [3], 1.65 ± 0.041 kcal/mol.
Consider “SMKKGEKIKIEKKKDGTLKITLPDGKEITVPLKDIKIEIKDGKIKITVFKDGKKIAEFELKIKKKKKKKKSA [r9_901_TrROS_Hall]”, for which the “folding stability dG unfold” value in data set [1] was determined as 1.71 ± 0.07 kcal/mol; in data set [2], 2.31 ± 0.42 kcal/mol; in data set [3] it was 2.64 ± 0.11 kcal/mol.
With “SMKPEEVKVIAEIEIEVNGKKIKIKIVKKKDGTVRVEIEVDGKKIEIEVKVKSKEEAKKILEELLKKLGISA [r9_758_TrROS_Hall]”, the “folding stability dG unfold” value in data set [1] stood at 2.93 ± 0.4 kcal/mol; in data set [2] it was 2.41 ± 0.52 kcal/mol; in data set [3] it was 1.53 ± 0.14 kcal/mol.
On to “SMKPNEKFPSLEEVKEAAKRIAEEIEKKTGKKIEVEVKVETVKKEDGKEVVKITIVDKKTKKVIKEIEIKSA [r9_794_TrROS_Hall]”, for which the entries for the “folding stability dG unfold” value in data set [1], in data set [2] and in data set [3] were 2.18 ± 0.096 kcal/mol, 1.58 ± 0.12 kcal/mol and 0.783 ± 0.076 kcal/mol, respectively.
Consider “SMKPYVYTHPEGITIPMFVLPDGTIKIEVTAFDPNNPVPLGKATATMDPATGTLNLTLPNGTSLSYTIPASA [r9_56_JUSTAS]”, for which the “folding stability dG unfold” value in data set [1] stood at 2.45 ± 0.065 kcal/mol; in data set [2], 2.5 ± 0.16 kcal/mol; in data set [3], 2.46 ± 0.1 kcal/mol.
As for “SMKSKISEIKSVEKKGNKVVVKVKIKAPKGKAYFIDSNGNIIKEVNLGKEVELEITFDSNNESFKVIVTDSA [r9_917_TrMRF]”, the “folding stability dG unfold” value in data set [1] was 1.34 ± 0.065 kcal/mol; in data set [2], 1.84 ± 0.099 kcal/mol; in data set [3], 1.99 ± 0.032 kcal/mol.
Taken in the same sequence, the figures for “SMKVEKLEDGTYIIVNEDGSITEIKVYPDKVEVKTYPVLYKMPDGRWFETKEEAEKFEEETGVPILEEDLSA [r9_660_TrMRF]” were 0.787 ± 0.11 kcal/mol, 0.759 ± 0.23 kcal/mol and 0.887 ± 0.27 kcal/mol.
With “SMKVKIKIEVYKPENKLIVKVYFPEIGKEIVFEFDSLEGLFEKIKKELGLKEENIEIVEVKVKEVDPSELSA [r9_909_TrMRF]”, the “folding stability dG unfold” value was found to be 2.21 ± 0.16 kcal/mol in data set [1], 2.2 ± 0.18 kcal/mol in data set [2] and 1.93 ± 0.048 kcal/mol in data set [3].
Turning to “SMKVKTYTFKIKVDGKEIEVTVEELEDGELLVTIKIKENGKEKTIVVSREELEELLKALLPPGAEIEKVESA [r9_384_TrROS_Hall]”, the results for the “folding stability dG unfold” value in data set [1], in data set [2] and in data set [3] were 2.99 ± 0.13 kcal/mol, 3.33 ± 0.099 kcal/mol and 3.49 ± 0.055 kcal/mol, respectively.
“SMKVTVSVTYNPETQTLELRFTVYERDPNGNWVPTASFPITLPVTIPAPPVPVVEVPEDATLPEDVALADSA [r9_888_TrMRF]”: the entries for the “folding stability dG unfold” value in data set [1], in data set [2] and in data set [3] were 3.64 ± 0.18 kcal/mol, 4.99 ± 0.33 kcal/mol and 5.14 ± 0.21 kcal/mol, respectively.
Consider “SMLIVAEGDTVTVELIATYTVVERDPDDPNRYTLRAFPLPLTFTVDPNDPEALRRFLEAAPPGFTPVIVGSA [r9_476_TrMRF]”, for which the results for the “folding stability dG unfold” value in data set [1], in data set [2] and in data set [3] were 2.62 ± 0.092 kcal/mol, 3.17 ± 0.13 kcal/mol and 3.43 ± 0.039 kcal/mol, respectively.
